Results taken from patent US20240025984A1 (FLUX THERAPEUTICS, published 2024).

T1: SYNGAP1-nanoluc-alfa-tag-fusion
T1 chain: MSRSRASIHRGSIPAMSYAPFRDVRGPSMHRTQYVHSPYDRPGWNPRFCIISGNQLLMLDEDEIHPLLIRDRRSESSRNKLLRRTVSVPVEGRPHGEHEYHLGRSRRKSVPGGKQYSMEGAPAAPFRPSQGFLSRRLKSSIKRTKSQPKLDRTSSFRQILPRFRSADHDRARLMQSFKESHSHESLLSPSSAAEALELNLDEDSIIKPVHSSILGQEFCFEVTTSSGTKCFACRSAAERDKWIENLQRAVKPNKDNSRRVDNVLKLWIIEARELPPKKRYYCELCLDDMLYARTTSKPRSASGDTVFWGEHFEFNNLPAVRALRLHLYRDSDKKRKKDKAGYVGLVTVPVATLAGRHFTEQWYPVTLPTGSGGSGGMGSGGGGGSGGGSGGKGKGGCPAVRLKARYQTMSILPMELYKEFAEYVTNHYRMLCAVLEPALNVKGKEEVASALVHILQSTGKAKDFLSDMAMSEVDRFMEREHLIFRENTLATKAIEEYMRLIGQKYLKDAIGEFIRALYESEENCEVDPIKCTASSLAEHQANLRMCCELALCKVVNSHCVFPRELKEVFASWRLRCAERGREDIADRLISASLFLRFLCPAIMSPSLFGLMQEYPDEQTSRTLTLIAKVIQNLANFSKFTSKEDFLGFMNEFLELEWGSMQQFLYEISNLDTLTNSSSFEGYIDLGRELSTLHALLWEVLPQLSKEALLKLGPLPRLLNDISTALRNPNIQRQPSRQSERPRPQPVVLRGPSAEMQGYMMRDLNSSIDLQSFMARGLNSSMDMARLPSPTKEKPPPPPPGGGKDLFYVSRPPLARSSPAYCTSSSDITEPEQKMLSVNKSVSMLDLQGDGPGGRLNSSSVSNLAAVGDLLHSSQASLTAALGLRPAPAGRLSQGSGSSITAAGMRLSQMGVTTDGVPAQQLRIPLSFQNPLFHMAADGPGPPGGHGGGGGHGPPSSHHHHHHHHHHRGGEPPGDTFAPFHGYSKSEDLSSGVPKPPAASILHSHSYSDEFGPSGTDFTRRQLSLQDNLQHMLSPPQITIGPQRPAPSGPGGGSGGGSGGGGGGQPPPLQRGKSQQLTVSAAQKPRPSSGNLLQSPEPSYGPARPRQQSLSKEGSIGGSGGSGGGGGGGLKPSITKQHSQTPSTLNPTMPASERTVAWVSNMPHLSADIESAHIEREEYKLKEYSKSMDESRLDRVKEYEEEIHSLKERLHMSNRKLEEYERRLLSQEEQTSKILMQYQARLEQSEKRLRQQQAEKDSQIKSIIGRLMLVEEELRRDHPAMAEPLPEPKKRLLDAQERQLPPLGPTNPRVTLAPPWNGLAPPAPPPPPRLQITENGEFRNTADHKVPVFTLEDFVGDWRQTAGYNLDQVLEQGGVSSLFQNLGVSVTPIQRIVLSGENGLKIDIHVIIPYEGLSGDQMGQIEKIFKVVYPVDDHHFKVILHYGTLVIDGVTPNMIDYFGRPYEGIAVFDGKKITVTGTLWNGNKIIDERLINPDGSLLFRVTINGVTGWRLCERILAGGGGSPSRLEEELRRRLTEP

B1: FireflyLuciferase-P2A-anti-syngap1_FLX00152-Cezanne (other)
chain: MEDAKNIKKGPAPFYPLEDGTAGEQLHKAMKRYALVPGTIAFTDAHIEVDITYAEYFEMSVRLAEAMKRYGLNTNHRIVVCSENSLQFFMPVLGALFIGVAVAPANDIYNERELLNSMGISQPTVVFVSKKGLQKILNVQKKLPIIQKIIIMDSKTDYQGFQSMYTFVTSHLPPGFNEYDFVPESFDRDKTIALIMNSSGSTGLPKGVALPHRTACVRFSHARDPIFGNQIIPDTAILSVVPFHHGFGMFTTLGYLICGFRVVLMYRFEEELFLRSLQDYKIQSALLVPTLFSFFAKSTLIDKYDLSNLHEIASGGAPLSKEVGEAVAKRFHLPGIRQGYGLTETTSAILITPEGDDKPGAVGKVVPFFEAKVVDLDTGKTLGVNQRGELCVRGPMIMSGYVNNPEATNALIDKDGWLHSGDIAYWDEDEHFFIVDRLKSLIKYKGYQVAPAELESILLQHPNIFDAGVAGLPDDDAGELPAAVVVLEHGKTMTEKEIVDYVASQVTTAKKLRGGVVFVDEVPKGLTGKLDARKIREILIKAKKGGKIAVTRLKGSGATNFSLLKQAGDVEENPGPRSGTGSSGQVQLVESGGGLVQPGGSLRLSCAASGFSFSNFPMMWVRQAPGKGREWVADINQDGRNTYYADSVKGRFTISRDNAKTTVYLQMNNLNPEDTAVYYCQAIRTTTHFDSWGQGTQVTVSSGAPGSGPPSFSEGSGGSRTPEKGFSDREPTRPPRPILQRQDDIVQEKRLSRGISHASSSIVSLARSHVSSNGGGGGSNEHPLEMPICAFQLPDLTVYNEDFRSFIERDLIEQSMLVALEQAGRLNWWVSVDPTSQRLLPLATTGDGNCLLHAASLGMWGFHDRDLMLRKALYALMEKGVEKEALKRRWRWQQTQQNKESGLVYTEDEWQKEWNELIKLASSEPRMHLGTNGANCGGVESSEEPVYESLEEFHVFVLAHVLRRPIVVVADTMLRDSGGEAFAPIPFGGIYLPLEVPASQCHRSPLVLAYDQAHFSALVSMEQKENTKEQAVIPLTDSEYKLLPLHFAVDPGKGWEWGKDDSDNVRLASVILSLEVKLHLLHSYMNVKWIPLSSDAQAPLAQ
B2: FireflyLuciferase-P2A-anti-syngap1_FLX00153-Cezanne (other)
chain: MEDAKNIKKGPAPFYPLEDGTAGEQLHKAMKRYALVPGTIAFTDAHIEVDITYAEYFEMSVRLAEAMKRYGLNTNHRIVVCSENSLQFFMPVLGALFIGVAVAPANDIYNERELLNSMGISQPTVVFVSKKGLQKILNVQKKLPIIQKIIIMDSKTDYQGFQSMYTFVTSHLPPGFNEYDFVPESFDRDKTIALIMNSSGSTGLPKGVALPHRTACVRFSHARDPIFGNQIIPDTAILSVVPFHHGFGMFTTLGYLICGFRVVLMYRFEEELFLRSLQDYKIQSALLVPTLFSFFAKSTLIDKYDLSNLHEIASGGAPLSKEVGEAVAKRFHLPGIRQGYGLTETTSAILITPEGDDKPGAVGKVVPFFEAKVVDLDTGKTLGVNQRGELCVRGPMIMSGYVNNPEATNALIDKDGWLHSGDIAYWDEDEHFFIVDRLKSLIKYKGYQVAPAELESILLQHPNIFDAGVAGLPDDDAGELPAAVVVLEHGKTMTEKEIVDYVASQVTTAKKLRGGVVFVDEVPKGLTGKLDARKIREILIKAKKGGKIAVTRLKGSGATNFSLLKQAGDVEENPGPRSGTGSSGQLQLVESGGGLVQPGESLRLSCAASGFTFSNYRMYWVRMAPGKGLEWVSDIDRSGTYTYYADSVKGRFAISRDNAKNTVYLQMNSLKPEDTAVYYCAADRRLIVDLTPEVYDHWGQGTQVTVSSGAPGSGPPSFSEGSGGSRTPEKGFSDREPTRPPRPILQRQDDIVQEKRLSRGISHASSSIVSLARSHVSSNGGGGGSNEHPLEMPICAFQLPDLTVYNEDFRSFIERDLIEQSMLVALEQAGRLNWWVSVDPTSQRLLPLATTGDGNCLLHAASLGMWGFHDRDLMLRKALYALMEKGVEKEALKRRWRWQQTQQNKESGLVYTEDEWQKEWNELIKLASSEPRMHLGTNGANCGGVESSEEPVYESLEEFHVFVLAHVLRRPIVVVADTMLRDSGGEAFAPIPFGGIYLPLEVPASQCHRSPLVLAYDQAHFSALVSMEQKENTKEQAVIPLTDSEYKLLPLHFAVDPGKGWEWGKDDSDNVRLASVILSLEVKLHLLHSYMNVKWIPLSSDAQAPLAQ
B3: FireflyLuciferase-P2A-anti-syngap1_FLX00157-Cezanne (other)
chain: MEDAKNIKKGPAPFYPLEDGTAGEQLHKAMKRYALVPGTIAFTDAHIEVDITYAEYFEMSVRLAEAMKRYGLNTNHRIVVCSENSLQFFMPVLGALFIGVAVAPANDIYNERELLNSMGISQPTVVFVSKKGLQKILNVQKKLPIIQKIIIMDSKTDYQGFQSMYTFVTSHLPPGFNEYDFVPESFDRDKTIALIMNSSGSTGLPKGVALPHRTACVRFSHARDPIFGNQIIPDTAILSVVPFHHGFGMFTTLGYLICGFRVVLMYRFEEELFLRSLQDYKIQSALLVPTLFSFFAKSTLIDKYDLSNLHEIASGGAPLSKEVGEAVAKRFHLPGIRQGYGLTETTSAILITPEGDDKPGAVGKVVPFFEAKVVDLDTGKTLGVNQRGELCVRGPMIMSGYVNNPEATNALIDKDGWLHSGDIAYWDEDEHFFIVDRLKSLIKYKGYQVAPAELESILLQHPNIFDAGVAGLPDDDAGELPAAVVVLEHGKTMTEKEIVDYVASQVTTAKKLRGGVVFVDEVPKGLTGKLDARKIREILIKAKKGGKIAVTRLKGSGATNFSLLKQAGDVEENPGPRSGTGSSGQVQLVESGGGLVQAGASLRLSCAASERTFGHYAMGWFRQAPGKEREFVATISWKGGTTGYAHSVKGRFTISRDSAKNMVYLQMNSLKPEDTAVYYCAARNTMSGSMSSSAYPYWGQGTQVTVSSGGGGSGGGGSGGGGSGGGGSQVQLVESGGGLVQAGASLRLSCAASERTFGHYAMGWFRQAPGKEREFVATISWKGGTTGYAHSVKGRFTISRDSAKNMVYLQMNSLKPEDTAVYYCAARNTMSGSMSSSAYPYWGQGTQVTVSSGAPGSGPPSFSEGSGGSRTPEKGFSDREPTRPPRPILQRQDDIVQEKRLSRGISHASSSIVSLARSHVSSNGGGGGSNEHPLEMPICAFQLPDLTVYNEDFRSFIERDLIEQSMLVALEQAGRLNWWVSVDPTSQRLLPLATTGDGNCLLHAASLGMWGFHDRDLMLRKALYALMEKGVEKEALKRRWRWQQTQQNKESGLVYTEDEWQKEWNELIKLASSEPRMHLGTNGANCGGVESSEEPVYESLEEFHVFVLAHVLRRPIVVVADTMLRDSGGEAFAPIPFGGIYLPLEVPASQCHRSPLVLAYDQAHFSALVSMEQKENTKEQAVIPLTDSEYKLLPLHFAVDPGKGWEWGKDDSDNVRLASVILSLEVKLHLLHSYMNVKWIPLSSDAQAPLAQ
B4: FireflyLuciferase-P2A-anti-syngap1_FLX00156-Cezanne (other)
chain: MEDAKNIKKGPAPFYPLEDGTAGEQLHKAMKRYALVPGTIAFTDAHIEVDITYAEYFEMSVRLAEAMKRYGLNTNHRIVVCSENSLQFFMPVLGALFIGVAVAPANDIYNERELLNSMGISQPTVVFVSKKGLQKILNVQKKLPIIQKIIIMDSKTDYQGFQSMYTFVTSHLPPGFNEYDFVPESFDRDKTIALIMNSSGSTGLPKGVALPHRTACVRFSHARDPIFGNQIIPDTAILSVVPFHHGFGMFTTLGYLICGFRVVLMYRFEEELFLRSLQDYKIQSALLVPTLFSFFAKSTLIDKYDLSNLHEIASGGAPLSKEVGEAVAKRFHLPGIRQGYGLTETTSAILITPEGDDKPGAVGKVVPFFEAKVVDLDTGKTLGVNQRGELCVRGPMIMSGYVNNPEATNALIDKDGWLHSGDIAYWDEDEHFFIVDRLKSLIKYKGYQVAPAELESILLQHPNIFDAGVAGLPDDDAGELPAAVVVLEHGKTMTEKEIVDYVASQVTTAKKLRGGVVFVDEVPKGLTGKLDARKIREILIKAKKGGKIAVTRLKGSGATNFSLLKQAGDVEENPGPRSGTGSSGQVQLVESGGGLVQPGGSLRLACAASGFTFGTHAMHWVRWAPGKGFEWVSTISSGGGGTRYADSVKGRFTISRDNAKNTVYLQMDNLKPEDTAVYYCNSPSNIANDNWGQGTQVTVSSGGGGSGGGGSGGGGSGGGGSQVQLVESGGGLVQPGGSLRLACAASGFTFGTHAMHWVRWAPGKGFEWVSTISSGGGGTRYADSVKGRFTISRDNAKNTVYLQMDNLKPEDTAVYYCNSPSNIANDNWGQGTQVTVSSGAPGSGPPSFSEGSGGSRTPEKGFSDREPTRPPRPILQRQDDIVQEKRLSRGISHASSSIVSLARSHVSSNGGGGGSNEHPLEMPICAFQLPDLTVYNEDFRSFIERDLIEQSMLVALEQAGRLNWWVSVDPTSQRLLPLATTGDGNCLLHAASLGMWGFHDRDLMLRKALYALMEKGVEKEALKRRWRWQQTQQNKESGLVYTEDEWQKEWNELIKLASSEPRMHLGTNGANCGGVESSEEPVYESLEEFHVFVLAHVLRRPIVVVADTMLRDSGGEAFAPIPFGGIYLPLEVPASQCHRSPLVLAYDQAHFSALVSMEQKENTKEQAVIPLTDSEYKLLPLHFAVDPGKGWEWGKDDSDNVRLASVILSLEVKLHLLHSYMNVKWIPLSSDAQAPLAQ

Biological target: T1, SYNGAP1-nanoluc-alfa-tag-fusion
Assay: cell-based or functional assay

Increase in SYNGAP1 expression over the control, ≥ 2 fold:
B1, B2, B3, B4
